Drawing on patent US20130336973A1, this text covers Kd for 23 substances.

Test [1] addresses FcγRIIB (CD32b), Y163 allotype (UniProt P31994). The test is described as follows: SPR. For orientation: In SPR one partner is held on a chip, and binding of the other changes the refractive index at the surface.
Test [2] concerns the target FcγRIIIA (CD16a), F158 allotype (UniProt P08637). In words: SPR.
Test [3] has as its target neonatal Fc receptor (FcRn) (UniProt P55899). In words: SPR, Ab captured on goat anti-human IgG, FcRn flowed, pH 6.0.

Where “and” joins values, the source holds several entries; their conditions need not be identical. Identical values can stand only once.

FcγRIIIA (CD16a), F158 allotype, sequence (P08637 17-208 limits assumed): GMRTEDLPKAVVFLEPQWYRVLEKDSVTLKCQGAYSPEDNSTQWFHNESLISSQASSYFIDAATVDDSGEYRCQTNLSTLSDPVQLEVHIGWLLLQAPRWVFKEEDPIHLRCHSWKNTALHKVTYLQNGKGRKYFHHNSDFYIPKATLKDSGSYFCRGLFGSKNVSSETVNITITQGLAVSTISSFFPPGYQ
neonatal Fc receptor (FcRn), sequence (P55899 24-297 limits assumed, chain 1 of 2): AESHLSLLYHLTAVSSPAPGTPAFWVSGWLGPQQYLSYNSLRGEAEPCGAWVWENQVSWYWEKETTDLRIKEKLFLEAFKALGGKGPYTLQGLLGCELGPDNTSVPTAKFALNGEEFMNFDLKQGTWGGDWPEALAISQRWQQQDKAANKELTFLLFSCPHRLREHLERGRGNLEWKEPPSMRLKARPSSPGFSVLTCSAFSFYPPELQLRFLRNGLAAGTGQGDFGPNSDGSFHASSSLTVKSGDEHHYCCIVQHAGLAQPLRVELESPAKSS
neonatal Fc receptor (FcRn), sequence (P61769 21-119 limits assumed, chain 2 of 2, further chain): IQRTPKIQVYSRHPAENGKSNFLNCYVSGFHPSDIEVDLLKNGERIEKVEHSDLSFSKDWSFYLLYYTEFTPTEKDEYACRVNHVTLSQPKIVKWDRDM
FcγRIIB (CD32b), Y163 allotype, sequence (P31994 43-217 limits assumed): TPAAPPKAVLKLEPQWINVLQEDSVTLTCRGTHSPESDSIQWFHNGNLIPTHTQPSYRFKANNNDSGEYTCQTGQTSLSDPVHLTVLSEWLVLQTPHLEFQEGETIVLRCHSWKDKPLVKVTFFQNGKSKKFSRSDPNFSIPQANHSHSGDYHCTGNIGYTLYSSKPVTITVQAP

For “D399C_F405A_Y407V / T366L_K392C_T394W (antibody)”, the Kd (usually the free concentration of one partner at which half of the binding sites on the other are occupied at equilibrium, for simple one-to-one binding) in test [1] was 1.2 µM; in test [2] it was 0.51 µM. Take “F405A_Y407V / T366L_K392M_T394W (antibody)”: the Kd in test [2] is 0.46 µM. In test [2], F405A_Y407V / T366L_T394W (antibody) returned a Kd of 0.48 µM. In the case of Herceptin WT (antibody), the Kd in test [1] was 1.7 µM; in test [3], 3.7 µM.

As to “L351Y_F405A_Y407V / T366L_K392M_T394W (antibody)”, the Kd worked out at 0.42 µM in test [2] and 5 µM in test [3]. For the substance “Q347R_T350V_L351Y_S400E_F405A_Y407V / T350V_K360E_T366L_N390R_K392M_T394W (antibody)”, the Kd in test [1] stood at 0.92 µM; in test [2], 0.42 µM. In the case of “T350V_F405A_Y407V / T350V_T366L_K392M_T394W (antibody)”, the Kd in test [1] is 1 µM. As for “T350V_L351Y_F405A_Y407V / T350V_T366L_K392L_T394W (antibody)”, the Kd in test [1] worked out at 0.99 µM; in test [3] it was 3.9 µM. On to “T350V_L351Y_F405A_Y407V / T350V_T366L_K392M_T394W (antibody)”, for which the values for the Kd in test [1], in test [2] and in test [3] were 1.2 µM, 0.46 µM and 4.3 µM, respectively. For the substance “T350V_L351Y_S400E_F405A_Y407V / T350V_L351Y_T366L_N390R_K392M_T394W (antibody)”, the Kd in test [1] is 0.71 µM. For “T350V_L351Y_S400E_F405A_Y407V / T350V_T366L_N390R_K392F_T394W (antibody)”, the Kd in test [1] worked out at 0.71 µM. That is a sub-micromolar value.

As to “T350V_L351Y_S400E_F405A_Y407V / T350V_T366L_N390R_K392L_T394W (antibody)”, in test [1], the Kd was 0.91 µM. As to “T350V_L351Y_S400E_F405A_Y407V / T350V_T366L_N390R_K392M_T394W (antibody)”, the Kd in test [1] is 0.9 µM; in test [2], 0.45 µM and 0.42 µM; in test [3] it was 5 µM.

Regarding “T350V_L351Y_S400E_F405S_Y407V / T350V_T366L_N390R_K392M_T394W (antibody)”, the Kd in test [1] was determined as 0.83 µM; in test [2] it was 0.42 µM. Turning to “T350V_L351Y_S400E_F405T_Y407V / T350V_T366L_N390R_K392M_T394W (antibody)”, the Kd in test [1] was determined as 0.67 µM. That is a sub-micromolar value. With “T350V_L351Y_S400R_F405A_Y407V / T350V_T366L_K392M_T394W (antibody)”, in test [1], the Kd was found to be 0.89 µM.

“T350V_L351Y_S400R_F405A_Y407V / T350V_T366L_N390D_K392M_T394W (antibody)” had a Kd in test [1] of 0.94 µM. With “T350V_L351Y_S400R_F405A_Y407V / T350V_T366L_N390E_K392M_T394W (antibody)”, the Kd in test [1] is 0.89 µM; in test [2] it was 0.42 µM.

As to “T350V_S400E_F405A_Y407V / T350V_T366L_N390R_K392M_T394W (antibody)”, the Kd came to 1 µM in test [1] and 0.45 µM in test [2].

Substance “Y349C_D399C_F405A_Y407V / S354C_T366L_K392C_T394W (antibody)” came in with a Kd in test [2] of 0.63 µM. This counts as sub-micromolar. Take “Y349C_F405A_Y407V / S354C_T366L_T394W (antibody)”: the Kd in test [1] was 1.2 µM; in test [2], 0.58 µM.

In the case of “Y349C_T350V_F405A_Y407V / T350V_S354C_T366L_K392M_T394W (antibody)”, the Kd came out at 0.46 µM in test [2] and 4.1 µM in test [3]. On to “Y349C_T350V_L351Y_S400E_F405A_Y407V / T350V_S354C_T366L_N390R_K392M_T394W (antibody)”, for which the values for the Kd in test [1] and in test [2] were 0.95 µM and 0.42 µM, respectively.
